This note sets out measurements from article PMC2852523 (The Journal of Membrane Biology, 2010).

The target in series [1] is T1, Potassium channel KcsA, wild-type (Streptomyces lividans), P0A334.
T1 chain: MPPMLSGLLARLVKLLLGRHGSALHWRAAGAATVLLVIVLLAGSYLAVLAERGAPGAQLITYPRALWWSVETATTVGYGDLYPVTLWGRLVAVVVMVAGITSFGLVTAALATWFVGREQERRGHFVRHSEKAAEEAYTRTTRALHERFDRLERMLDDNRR
Briefly: SDS-PAGE. To be noted: remark: other sources report otherwise.

The series “SDS-PAGE” deals with the molecule itself. Briefly: SDS-PAGE.

B1: Potassium channel KcsA, wild-type, P0A334 1-160 (natural protein)
chain: T1 chain
Usually stoichiometry N stands for a count of units in the complex or per binding partner. Turning to B1, the stoichiometry N in series [1] was 4.

B2: ΔN-KcsA (KcsA lacking the first 18 amino acids, Δ1–18) (domain or fragment, Streptomyces lividans, UniProt P0A334 19-160, looked up)
chain: RHGSALHWRAAGAATVLLVIVLLAGSYLAVLAERGAPGAQLITYPRALWWSVETATTVGYGDLYPVTLWGRLVAVVVMVAGITSFGLVTAALATWFVGREQERRGHFVRHSEKAAEEAYTRTTRALHERFDRLERMLDDNRR
For B2, the “stoichiometry N” value in “SDS-PAGE” was 4.
